Measurements reported in patent US11407811B2, “Fusion protein, preparation method therefor and use thereof” (JIANGSU RONGTAI BIOTECH CO., LTD., priority 2017, dated 2022).

Key:
[1] = tested on: melanoma cell line B16F10; assay: MTT assay, proliferation of melanoma cell B16F10; format: cell-based
Procedure: The MTT assay was used to detect the inhibitory effect of the integrin blocker fusion protein obtained in Example 1 on the proliferation of various tumor cells, including melanoma cell B16F10, gastric cancer cell MGC-803, lung cancer cell A549, liver cancer cell Hep-G2, breast cancer cell MDA-MB-231, colon cancer cell HCT-116, human glioma U87, and cervical cancer cell Hela.
The tumor cells were cultured in a 5% CO2 incubator at 37° C. to a density of 90% or more, and collected by trypsinization. The cells were resuspended in the culture liquid and counted under a microscope. The cell concentration was adjusted to 3.0×10^4 cells/mL. The cell suspension was inoculated into a 96-well plate at 100 μL per well and cultured overnight in a 5% CO2 incubator at 37° C. […] After the cells were fully adhered, each dilution was added to a 96-well plate at 100 μL per well, respectively. […] 20 μL of 5 mg/mL MTT was added to each well of a 96-well plate, and incubation was continued for 4 hours. The medium was aspirated and 100 μL of DMSO per well were added to dissolve. The absorbance was measured at 570 nm with a microplate reader with a reference wavelength of 630 nm, and the proliferation inhibition (PI) was calculated. The formula is as follows: […]
where Ntest is the OD value of the test group and Ncontrol is the OD value of the blank control group.
The test was repeated 5 times independently. The results obtained from the test were calculated as mean±SD, and statistical t-test was performed. P<0.05 was considered as a significant difference, and P<0.01 was considered as an extremely significant difference.

[2] = tested on: tampon granuloma in rat; format: in vivo
Procedure: 40 parts of degreasing cotton, 30 mg for each part, were accurately weighed with an analytical balance and kneaded into balls having substantially the same shape and size, which were autoclaved at […] for 30 min and dried at 50° C. for further use.
40 male SD rats were randomly divided into 4 groups with 10 rats for each group. […] Rats were anesthetized with sodium pentobarbital (40 mg/kg) via intraperitoneal injection before administration. The abdominal coat was cut off, and the skin of middle of the lower abdomen was cut under sterile conditions. The incision was about 1 cm long and the subcutaneous tissue was expanded with a vascular clamp. A sterile dry tampon was subcutaneously implanted into one side of the groin, the incision was sutured, and an appropriate amount of amoxicillin was spread at the incision to prevent infection. After the surgery was finished, the groups were administered once by injection from the day of surgery (EDSM needed to be administered twice a day). The rats were sacrificed by cervical dislocation at the 24th hour after administration, the inguinal skin was cut, the tampon was taken out together with the surrounding granulation tissue and the surrounding tissue was removed. After drying for additional 48 h in an oven at 60° C., the weight was accurately weighed. The granuloma weight was calculated: granuloma weight (mg/100 g body weight)=net weight of granulation (mg)/rat body weight (100 g).

[3] = tested on: neovascularization in premature rat retinopathy model; assay: Neovascularization in premature rat retinopathy model (fluctuating oxygen-induced); format: in vivo
Procedure: A fluctuating oxygen-induced animal model was adopted, and newborn rats (within 12 hours) spontaneously delivered on the same day were randomly divided into three groups: an oxygen model group, an oxygen treatment group, and a normal control group. The oxygen model was subdivided into three model subgroups, which were placed in a semi-closed oxygen chamber made of plexiglass together with the treatment group. The medical oxygen was introduced into the chamber, and the oxygen concentration was adjusted to 80%±2% with an oxygen meter. After 24 hours, nitrogen gas was introduced into the oxygen chamber, and then the oxygen concentration was rapidly adjusted to 10%±2% and maintained for 24 hours. […] The oxygen concentration was monitored 8 times a day, and the ambient temperature in the chamber was controlled to 23° C.±2° C. […]
On day 14, after the rats was sacrificed with ether anesthesia, the eyeballs were removed and fixed in a 40 g/L paraformaldehyde solution for 24 hours. […] 10 sections were randomly selected from each eyeball to be stained with hematoxylin and eosin, and the nucleus of vascular endothelial cells that broke through the inner limiting membrane of the retina was counted (only the nucleus of vascular endothelial cells closely related to the inner limiting membrane were counted), and the average number of cells per section per eyeball was counted.

B1: Protein II: IgG2-Fc linked to antiangiogenesis polypeptide EDSM-Y via a flexible linker; SEQ ID NO: 17 (protein)
chain: ERKCCVECPPCPAPPVAGPSVFLFPPKPKDTLMISRTPEVTCVVVDVSHEDPEVQFNWYVDGVEVHNAKTKPREEQFNSTFRVVSVLTVVHQDWLNGKEYKCKVSNKGLPAPIEKTISKTKGQPREPQVYTLPPSREEMTKNQVSLTCLVKGFYPSDISVEWESNGQPENNYKTTPPMLDSDGSFFLYSKLTVDKSRWQQGNVFSCSVMHEALHNHYTQKSLSLSPGKGGGGSGGGGSGGGGSFQPVLHLVALNSPLSGGMRGIRGADFQCFQQARAVGLAGTFRAGGGGRGD
**Q.** Which “A570 nm/A630 nm” value ([1]; dose 1 μg/mL) does the source give for B1 here?
**A.** The value was 1.1137 ± 0.0370.

**Q.** And the “PI (%)” value ([1]; dose 1 μg/mL)?
**A.** The value was 11.17%.

**Q.** What about the “A570 nm/A630 nm” value ([1]; dose 2 μg/mL) of the same molecule?
**A.** Its value is 1.0250 ± 0.0230.

**Q.** And the “PI (%)” value ([1]; dose 2 μg/mL)?
**A.** The value was 18.24%.

**Q.** And the “A570 nm/A630 nm” value ([1]; dose 4 μg/mL)?
**A.** Its value is 0.8986 ± 0.0731.

**Q.** What about the “PI (%)” value ([1]; dose 4 μg/mL) of the same molecule?
**A.** The value was 28.32%.

**Q.** And the “A570 nm/A630 nm” value ([1]; dose 8 μg/mL)?
**A.** Its value is 0.7243 ± 0.0421.

**Q.** And the “PI (%)” value ([1]; dose 8 μg/mL)?
**A.** Its value is 42.23%.

**Q.** And the “A570 nm/A630 nm” value ([1]; dose 16 μg/mL)?
**A.** Its value is 0.6400 ± 0.0661.

**Q.** What about the “PI (%)” value ([1]; dose 16 μg/mL) of the same molecule?
**A.** Its value is 48.95%.

**Q.** What about the “A570 nm/A630 nm” value ([1]; dose 32 μg/mL) of the same molecule?
**A.** Its value is 0.5034 ± 0.0286.

**Q.** And the “PI (%)” value ([1]; dose 32 μg/mL)?
**A.** Its value is 59.85%.

**Q.** And the “A570 nm/A630 nm” value ([1]; dose 64 μg/mL)?
**A.** The value was 0.3867 ± 0.0195.

**Q.** And the “PI (%)” value ([1]; dose 64 μg/mL)?
**A.** The value was 69.16%.

**Q.** What about the “PI (%)” value ([1]; dose 128 μg/mL) of the same molecule?
**A.** The value was 76.59%.

**Q.** And the “A570 nm/A630 nm” value ([1]; dose 256 μg/mL)?
**A.** Its value is 0.1777 ± 0.0212.

**Q.** And the “PI (%)” value ([1]; dose 256 μg/mL)?
**A.** Its value is 85.83%.

**Q.** What about the “inhibition of tampon granuloma in rat” value ([2]; effective dose of 64 mg/kg, compared with the blank model group) of the same molecule?
**A.** Its value is “could significantly inhibit tampon granuloma in rat”.

**Q.** And the “GranuLoma (mg)/Weight (100 g)” value ([2]; rat, 64 mg/kg, injection)?
**A.** Its value is 0.23 ± 0.05 mg/100 g.

**Q.** And the “PI (%)” value ([2]; rat, 64 mg/kg, injection)?
**A.** The value was 55.77%.

**Q.** What about the “Weight gain” value ([2]; rat, in vivo, 64 mg/kg) of the same molecule?
**A.** The value was 32.16 ± 10.13 g.

**Q.** And the “Nucleus number (nucleus count of vascular endothelial cells)” value ([3]; 100 μg intravitreal injection on day 7, counted on day 14, per section per eyeball)?
**A.** Its value is 7.238 ± 1.194.

**Q.** What about the “nucleus counts of retinal vascular endothelial cells” value ([3]; intravitreal injection, dose of 100, day 14, oxygen model group 27.452±2.110) of the same molecule?
**A.** Its value is 7.238±1.194.
